Experimental data reported in patent US20240026407A1, “MODIFICATION OF SAPONINS” (GLAXOSMITHKLINE BIOLOGICALS SA, priority 2020, published 2024).

How the values were obtained:
Format in all cases: biochemical, Quillaja saponaria
[1] = Experiment 5-1: screening of additional glucosidases for deglycosylation with purified QS-18 (0.04 mg/ml) at pH 7.5 and 30 deg C; settings: pH 7.5, 30 degrees C, 18 hours, LCMS/MS
Method: The 94 additional genes, together with positive control (DNA encoding SEQ ID No. 262) and negative control, were transformed, expressed, lysed and reacted in the same manner as described above for Experiment 4-1, except the reaction was incubated at 30 degrees C. for 18 hours.
Samples were analysed by LCMS/MS according to the procedure in Experiment 4-1.

[2] = Experiment 5-3: screening of additional glucosidases for deglycosylation with QS-18 in treated bark extract (80%) at pH 6 and 35 deg C; settings: TBE 80% (QS-21 approx. 4 g/L), pH 6, 35 deg C; UV HPLC
Method: Experiment 5-1 was repeated, replacing CBE with Treated Bark Extract (TBE) at pH 6. TBE was prepared from CBE by PVPP treatment and concentration, to provide TBE with a QS-21 concentration of approximately 4 g/L. TBE was adjusted to pH 6 by dropwise addition of 2M NaOH with stirring.

[3] = Experiment 5-2: screening of additional glucosidases for deglycosylation with QS-18 in crude bark extract (80%) at pH 6 and 35 deg C; settings: CBE 80%, pH 6, 35 deg C, 18 hours; UV HPLC
How it was run: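 Deglycosylation of QS-18 was monitored by UV HPLC after MeCN/AcOH quench with hexanophenone. The reaction ran 18 hours at 35 deg C, shaking, combining clarified pH 6 lysate with crude bark extract neutralised to pH 6 by NaOH.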

| Molecule | Experiment 5-1 % conv [1] [%] | Experiment 5-3 % conv [2] [%] | Experiment 5-2 % conv [3] [%] |
| --- | --- | --- | --- |
| 840 (protein, listed as Hungatella hathewayi) MNKKIKEILNSLTLEEKASLCSGVGLWQTRPLEDKGIPEIWMADGSNGVRIMKPVNQERKQDTSDFLKVTDLTQNSPTITNQYEAVCYPSGASLASTWDTELIEEMGEALGDECRYFKVNLLLAPGINIKRSPLGGRGYEYYSEDPYLTGKVAESFIKGVQKTGTGTSIKHFAANNAETLRINMSSDVDERALREIYLAPFEIGVKNAKPWTVMSSYNKVNGVQMAENRELLTDILRDEWGFNGVVVSDWGGVKDRIKALEAGNDLDMPENQRSNQSVVDAVRRGILSEAVLDQSVERILELVFKAKEQERFTDDMDFESHRNLSRKVAEESVVLLKNEKGLLPITKEKYKKVAVIGAFAREPRYQGGGCTLVNPIRISRPYEEMEKLAGKNIELTYAKGYELKDETSDELIHEAEEAAREADIAVIFGGLWVAYDREGFDRKHLEIDSSHIRLIEAVSRVQKRVVVVLSNGDAVVMSPWLDHVGAVVEQFLVGETVGEALARVLFGEVNPSGKLPVTFPKRLEDTSAYPYFPGECSHHVYGEGIFVGYRYFDKKKIEPLFPFGYGISYTTFQYSAIRADRSQMKDTDTVTVSVDVTNTGCVKGKEIVQIYVSDEKSRLKRPEKELKAFGKVELEPGETKTLTFTLGYRDFAYYDPEASDWVVEEGIFHIHAAANAGDIRQSIPVEVTEAKKKFRRLYLDSQHTAVFEHPMAKKMYLDFLVETGVIAADRVEAMAPLLKGNYMGIYNVVTSLLGGNVTKEEMQAVLDRINEVCKDNRPAE | 3.5 | <0.5 | <0.5 |
| 876 (protein, listed as Pyrenochaeta sp.) MQLSEMALTGVEVDATDVEYILKQMSLDEKIQMLAAKNVWETPEIERVGIPSLKVTDGPNGARGGSFFDGTTAACFPASVSLAATFSRELSRQIGTALGQEAITKGAYAVLGPTVCCHRSPLGGRNFEAFSEDPYLSGTLASEYVQGLQQERVAATVKHFLANEQDTRRFSINQTISERALREIYLKPFEMVVKEAKPWCFMSSYPKINGKHVDAQSLFLEDILRKEWSYDGLVMSDWGATSTVESVSYGLDLEMPGPPRFRTPEAVHQALLKGTVSESDIDARVLTTLKLLERVGKFADRRDTPKETAVDRPEHRELIRKAGSEGIVLLKNDRGILPIDVTKTKKVALLGPLAKYAAAHGGGSASLNCHYKVSPFDAFKDRLSEDVEIAHSKGAHIFRVYPDLEEGCLNARQRPGFLAEYFMTSRVTEEPFLVEQFPRGSFTTLMNTRATGCKTVRFTTTYSPVTPGAHYLSFSGLGPSKFYINDELVAHQTESTKDAMGFLLGVQEEIRTQFVFEVGKEYNIVVETHPSPTSNAELYLLDNQCSVHLGLISQEEMEQDVLAEAVSLAKDADLAIVFVGNTTQWETEGQDLESMSLPANGSQDDLIVRVAAANPNTIVVNTTGVPVELPWIDSVPAFLQAWYAGQETGNAILDVLLGTTCPSGKLPISWPKKYEHTGCFGNFGLDSFESRQVDYVEGVFVGYRWFDNLWGGEKEVRFPFGFGLSYTTFEITGTSIKGSLSNDAHHVLRVSIKVKNVGKCLGAEIVQVYLKPPVTEGLERPQKTLAGFEKIELRVGEEREVHIAIGKENAAFWDENLSKWRVSTGVYEVLVATSSHPRDCRAVLETVVEDEFIFKA | 3.1 | <0.5 | <0.5 |
| 817 (protein, listed as Pseudonocardia sp.) MAHVDEELLGTLIATLDLERKVRLLTGADFWSTPAEPAIGLRRMVLSDGPSGVRGESFDEREPSLSLPSSSALGATWDPAAARRYGSALGAEARRQHADAVLGPTINLHRTPYGGRHFEALSEDPLLTAELAAAYVEGLQAHGVAATPKHYVANDAETERFSVDNRVGDRALRELYLAAFEPVVTRAGAWAVMSAYNAVNGTTMSENPLLAEPLTGEWGFDGLVMSDWGGARSTEASARAEQHLVMPGPVSAWGARLVEAVRDGRVGEDVIDGKVRRLLRLAARVGALDGVPPQVTEPPPAEDGAAVARELAAAGSVLVRNTRADGAAELPWDHAVPGSVAVLGHNAALARTQGGGSATVRPAAVVSPLDGLRAALGADRVRYRLGAQVAEGVQPFDPASITNPVTGGSGLRAVFRDVGGAALRTEDRLSSSLIWMGAEIPEGTDHVEIALRWDAPAGAHRLGAAAVGHVVLVAGGTTVLDADGVLTGDEGPGAAIFEAPSVTAGVTTDGPVDLVLRFRPSGQEAGMPLVAVTVGEETVVDDPDAEIAAAAALAAGTDVAVVVVGTNDRIESEGFDRSTLALPGRQDDLVRAVAAANPRTVVVVNSGAPVLLPWRDEVAAILLGWFGGEQFGEAVADVLLGAAEPGGRLPTTWPGTGRERSVLSGVPSDGVLRYDEGVHAGHRNWLRHGETPAYPFGHGLGYTTWTLDGMSVGRWSADGIDVTVTLTNIGDRPGRQVVQAYLSRDRSDVERPARWLAGWAVVDAAPGTTTVTVPVSRRAFRHRTGTGWATEPGTWTLHLGFSVTDTPLAAEVTTT | 3.5 | <0.5 | <0.5 |
| 854 (protein, listed as Corynespora cassiicola) MAQESGTVHDDESLQALVGQMTLEEKIKMLSAKNVWETPEIDRLGIPSLKVTDGPNGARGGSFFDGTTAACFPSCVSLAATFNRSLSRQVGKALEQEAITKGAYVLLGPTVCCHRSPLGGRNFEAFSEDPYLSGALASEYVKGLQEERVAATVKHFLANEQDTRRFSVNEKISERALREIYLRPFEMVAKEADPWCFMSSYPKINGAHVDAQSKFLVDILRKEWGYKGLIMSDWGATSTPESVRYGLDLETPGPPRWRTTDAVTKCLADGHIEESDIDARVLATLRLLKKVGKFDDRKTTPPEQAIDRPEHRALIRKAGGEGIVLLKNNGNLLPIDTRKTKKIALLGPLAKYAAAHGGGSASLNCHYKISPYDAFVARLGGDVEITHSKGAHIFRVYPDLEASCTNARGNSGFLAEYFMSSSTTEKPFWTEEFPRGSVTTLMNTKVIGCKTLKFTTTYQPPVSGSHYLSFSGLGPSQLFINDMLVAEQKEPTKDAMGFLLGVQEEVRIQYPFSSTQSYAISMVTHPSPFSNAELYLMENQCAIHIGFIAQEEIEHDVLSEAVDLASSADLAIVFVGNTIQWETEGQDLETMTLPADGSQDNLISQVVAANPNTIVVNTTGVPVELPWVDSVPALLQAWYAGQECGNAILDVLLGEVSPSGKLPISWPKKYEHTGCYGHFGLDSFESREVEYVEGVYVGYRWFDQWWGQDKEVRFPFGFGLSYTEFDISDARISGAISGDESSQVKVSANIRNIGDRFGAETVQIYVQPPALADLGRPLKDLVGFVKVELKPGETRDITVCFQKDNVSFWNEKANQWRVCRGTYNVLIATSSDPKDAKQALRFEVEEDLDFDP | 3.7 | <0.5 | <0.5 |
| 850 (protein, listed as Bifidobacterium scardovii) MSESTYPSVKDLTLEEKASLTSGGDVWHLQGVESKGIPGYMITDGPHGLRKSLASSAGETDLDASVPATCFPPAAGLSSSWNPELIRKVGEAMGEECIQEKVAVILGPGVNIKRNPLGGRCFEYWSEDPYLAGHEAIGIVEGVQSKGVGTSLKHFAANNQETDRLRISANIGPRALREIYLPAFEHIVKTAQPWTVMCSYNRINGVYSAQNRWLLTDVLRGEWGFEGIVMSDWGADHDRVASLNAGLNLEMPPSYTDDEIVHAARDGRIAPAQLDAMAQGMIDLVNRTRAAMSVDDYRFDVDAHDEVAHQAAVESIVMLKNDGAILPLDADAASGQKIAVIGEFARTPRYQGGGSSHITPTRMTSFLDALDERGIAAEFAPGFTLDLEPADPALEAQAVDAAKRADTVLMFLGLPEAAESEGFDRETLDIPAKQIALLDAVAAANDQVVVVLSNGSAVSVAPWAGRAKGILESWLLGQAGGPALADVIFGRTSPSGKLAQTIPMDINDDPSMVNWPGEEGHVDYGEGVFVGYRYYDTYGKAVGYPFGYGLSYATFEISKAAVARTGANAAVVTATVTNTSGVDGAETVQVYVAPGKADVARPRHELKGFVKVFLKAGESADVAIDLDERAFAYWSERYDDWHIESGEYAVEIGTSSRDIAATVTVALEGDGKTQPLTAWSTYGEWSSDPIGAKVMAAVAAAGEAGELPKLPDNAMMNMFLMAMPINSLPTLMSEGGKSITRFMLDEYARLTK | 95.3 | <0.5 | <0.5 |
| 819 (protein, Propionibacterium australiense) MTTVHPDDYADRASELVAAMTLDEKASLTSGADFWNLKTVERLGLGAVMVTDGPHGLRKATNDAEIGIGQAVPATCFPTAAALGSTWDDELLEQVGAALGEEARAAGVAVVLGPGVNMKRSPLCGRNFEYFSEDPLVAGRAGAAMVRGVQSQGVGTSVKHFAANSQETDRMRIDARIGERALREIYLPAFERIVTQTRPWTVMCAYNKVNGTYASQHPWLLTTVLREDWGFGGLVVSDWGAVDQRVPGLAAGLDLEMPASGGVTDEQIARAVRTGELDEAVLDRAVQRIVALILAAQAVEPGTGFDTDAHHELARKAAAAGAVLLRNEPVDGSPVLPLDARDITGQAPLVVIGEFARTPRYQGAGSSQINPTRLDSALDALREQLGGAVRFEPGYRLAEATGMPGQELTDDELADRAVEAARGATVVLFAGLPAAVESEGYDRDDIELPNAQTTLIERVSAVAARTTVVLSNGSVVSVASWREKVDALLECWLGGQGGGSATADVLLGRSCPGGHLAESIPLALSDVPAQLNFPGSHSRVDHGEGVFVGYRGLDTMGREVAYPFGFGLTYTTFELTGVQATPVVTVADGTGLDETVAVVRGTLTNTGQRTGAQVVQLYLGRHEASRVARAPRELRGYEKITLAPGQSAPFEFALSRRDLSYWDEGTGCWQVEPGAYRAWVGFSSRDAAAVLPLQVTAPEPASPLGKDSTYAEWMAHPVGGPLLRTDARAFVDDMASSGAYELFAAMPLERLVRLPGSLLAPEDYLTLLDRAQAGQD | 3.2 | <0.5 | <0.5 |
